Source: PMC8455438 (Molecular cell, 2021)
Substitutions are numbered along the chain they refer to. Names and notes keep the numbering of the source. Like-named read-outs stand apart in the source and are kept apart here.

B1: 6xHis-IDH2 R140Q-FLAG, K413 not acetylated (pre-treated with cobB protein deacetylase, or deacetylated by rSIRT3) (enzyme, human, UniProt P48735 40-452, looked up)
chain: ADKRIKVAKPVVEMDGDEMTRIIWQFIKEKLILPHVDIQLKYFDLGLPNRDQTDDQVTIDSALATQKYSVAVKCATITPDEARVEEFKLKKMWKSPNGTIQNILGGTVFREPIICKNIPRLVPGWTKPITIGRHAHGDQYKATDFVADRAGTFKMVFTPKDGSGVKEWEVYNFPAGGVGMGMYNTDESISGFAHSCFQYAIQKKWPLYMSTKNTILKAYDGRFKDIFQEIFDKHYKTDFDKNKIWYEHRLIDDMVAQVLKSSGGFVWACKNYDGDVQSDILAQGFGSLGLMTSVLVCPDGKTIEAEAAHGTVTRHYREHQKGRPTSTNPIASIFAWTRGLEHRGKLDGNQDLIRFAQMLEKVCVETVESGAMTKDLAGCIHGLSNVKLNEHFLNTTDFLDTIKSNLDRALGRQ
B2: 6xHis-IDH2 R140Q/K413Q-FLAG (acetyl-mimetic) (enzyme, human, UniProt P48735 40-452, looked up)
chain: B1 chain with K374Q
B3: 6xHis-IDH2 R140Q-FLAG, K413-acetylated (by rACAT1 after cobB pre-treatment, or with intrinsic lysine acetylation obtained in bacteria) (enzyme, human, UniProt P48735 40-452, looked up)
chain: B1 chain
modifications: acetyl-lysine at K413 (rACAT1 acetylates mutant IDH2 at multiple lysine sites; intrinsic lysine acetylation obtained in bacteria)
B4: 6xHis-IDH2 R140Q/K413R-FLAG (acetyl-deficient) (enzyme, human, UniProt P48735 40-452, looked up)
chain: B1 chain with K374R
B5: recombinant ACAT1 (mitochondrial acetyl-coA acetyltransferase), wild type (enzyme, UniProt P24752 34-427, looked up)
chain: VSKPTLKEVVIVSATRTPIGSFLGSLSLLPATKLGSIAIQGAIEKAGIPKEEVKEAYMGNVLQGGEGQAPTRQAVLGAGLPISTPCTTINKVCASGMKAIMMASQSLMCGHQDVMVAGGMESMSNVPYVMNRGSTPYGGVKLEDLIVKDGLTDVYNKIHMGSCAENTAKKLNIARNEQDAYAINSYTRSKAAWEAGKFGNEVIPVTVTVKGQPDVVVKEDEEYKRVDFSKVPKLKTVFQKENGTVTAANASTLNDGAAALVLMTADAAKRLNVTPLARIVAFADAAVEPIDFPIAPVYAASMVLKDVGLKKEDIAMWEVNEAFSLVVLANIKMLEIDPQKVNINGGAVSLGHPIGMSGARIVGHLTHALKQGEYGLASICNGGGGASAMLIQKL
B6: recombinant ACAT1 Y407F (phosphor-deficient mutant) (enzyme, UniProt P24752 34-427, looked up)
chain: B5 chain with Y374F
B7: recombinant ACAT1 treated with rFLT3 (Y407-phosphorylated) (enzyme, UniProt P24752 34-427, looked up)
chain: B5 chain
modifications: phosphotyrosine at Y407 (by rFLT3)

Tests used:
[1] = molecular target: the molecule itself; experiment: native gel or EMSA
[2] = molecular target: the molecule itself; experiment: native gel or EMSA; remark: listed apart in the source
[3] = molecular target: T1, Recombinant IDH2 (R140Q) protein (ACTIVE MOTIF) (human, UniProt P48735 40-452, R140Q); experiment: co-IP
T1 sequence (looked up): B1 chain

Row | Binder | stoichiometry N [1] | binding result [3] | further results
1 | B1 | 2 |  | 
2 | B2 | 2 |  | 
3 | B3 |  |  | stoichiometry N [2]: 2
4 | B4 | 2 |  | 
5 | B5 |  | binds | 
6 | B6 |  | binds | 
7 | B7 |  | binds | 
